Measured values taken from article PMC8005358 (Science translational medicine, 2019).

B1: recombinant human erythroferrone variant with a VPFQ insertion (ERFE^VPFQ) (natural protein, UniProt Q4G0M1 29-354, looked up)
chain: SPEPGAPSRSRARREPPPGNELPRGPGESRAGPAARPPEPTAERAHSVDPRDAWMLFVRQSDKGVNGKKRSRGKAKKLKVPFQFGLPGPPGPPGPQGPPGPIIPPEALLKEFQLLLKGAVRQRERAEPEPCTCGPAGPVAASLAPVSATAGEDDDDVVGDVLALLAAPLAPGPRAPRVEAAFLCRLRRDALVERRALHELGVYYLPDAEGAFRRGPGLNLTSGQYRAPVAGFYALAATLHVALGEPPRRGPPRPRDHLRLLICIQSRCQRNASLEAIMGLESSSELFTISVNGVLYLQMGQWTSVFLDNASGCSLTVRSGSHFSAVLLGV
B2: recombinant human erythroferrone, wild type (ERFE^WT) (natural protein, UniProt Q4G0M1 29-354, looked up)
chain: SPEPGAPSRSRARREPPPGNELPRGPGESRAGPAARPPEPTAERAHSVDPRDAWMLFVRQSDKGVNGKKRSRGKAKKLKFGLPGPPGPPGPQGPPGPIIPPEALLKEFQLLLKGAVRQRERAEPEPCTCGPAGPVAASLAPVSATAGEDDDDVVGDVLALLAAPLAPGPRAPRVEAAFLCRLRRDALVERRALHELGVYYLPDAEGAFRRGPGLNLTSGQYRAPVAGFYALAATLHVALGEPPRRGPPRPRDHLRLLICIQSRCQRNASLEAIMGLESSSELFTISVNGVLYLQMGQWTSVFLDNASGCSLTVRSGSHFSAVLLGV

Target: the molecule itself
Assay: SDS-PAGE in reducing and non-reducing conditions

Row | Protein | stoichiometry N
1 | B1 | 3
2 | B2 | 3
